Reference: patent US10286070B2, “Oncostatin M (OSM) antagonists for preventing cancer metastasis and IL-6 related disorders” (Boise State University, priority 2013, dated 2019)
“Also recorded” adds a separate entry of the source.

Columns and labels:
[1] = system: pSTAT3, pJNK, pERK, and pAKT signaling; experiment: Western blot analysis of downstream OSM signaling in MDA-MB-231 cell lysates; assay type: cell-based, human; settings: MDA-MB-231 cells; 5 μM
[2] = system: Du145 and PC3+STAT3 human prostate cancer cells; experiment: OSM-induced detachment of human prostate cancer cells; assay type: cell-based; settings: OSM 5 ng/mL, inhibitors 5 μM, 5 days
Description: FIGS. 15A and 15B. […] Detachment for FIG. 15A) Du145 and 15B) PC3+STAT3 human prostate cancer cells. 10,000 cells were plated in a 24-well plate in 1 mL complete media that was pre-incubated with OSM (5 ng/mL) and inhibitors (5 μM) for 1 hour. After 5 days, the detached cells were stained with Trypan Blue and counted using a hemocytometer.

[3] = system: OSM-induced phosphorylation of STAT3 on Tyr-705 (pSTAT3); experiment: pSTAT3 ELISA after OSM stimulation; assay type: cell-based; settings: human breast cancer cells; OSM 25 ng/ml, 30 minutes
From the text: FIGS. 16A-16D. […] This method can be used for in vitro screening of lead compounds that inhibit OSM signaling. […] Cell lysates were collected and pSTAT3 levels were measure by ELISA.
Next an enzyme-linked immunosorbent assay (ELISA) for analyzing initial OSM-induced phosphorylation of STAT3 on Tyr-705 (pSTAT3) will be employed for the initial screen. […] The ability of the top 100 OSM-SMIs to inhibit OSM-OSMR interactions that result in expression of pSTAT3 will be evaluated by this assay and cells will be pretreated with the OSM-SMIs for 2 hours prior to the addition of OSM. As positive controls, neutralizing antibodies to human OSM or human gp130 will establish baseline pSTAT3 levels in the ELISA assay (FIG. 16A).
Actual physiological levels of OSM may be much lower than the nanogram levels used here. […] Therefore, testing inhibitors using lower concentrations of OSM may better allow for the detection of Effects at physiologically relevant concentrations.
Additionally, a functional dose response curve for OSM-SMI activity will be generated through 2 log units of concentration of compounds and used to establish the dynamic range of OSM-SMI activity. This will be used to determine the half maximal inhibitory concentration (IC50) as well as the minimum effective concentration (Ceff) for each compound.

IL-6 [4] = experiment: IL-6 ELISA on conditioned media of OSM treated human breast cancer cell lines; assay type: cell-based; settings: OSM 25 ηg/ml, 48 hours
Description: (§1) 1×10^5T47D, MDA-MB-231, MCF7, MDA-MB-468, or 4T1.2 cells were plated in multi-well plates in the presence or absence of OSM for […]. Conditioned media was collected, diluted 1:5 and an IL-6 ELISA was performed as according to the manufacturer's recommended instructions.
(§2) OSM induced IL-6 expression was studied on various cell lines including two ER+ cell lines, T47D and MCF7, and three ER− cell lines MDA-MB-468, MDA-MB-231, and 4T1.2 cells. rhOSM was used for the four human cell lines at a concentration of 25 ηg/ml while rmOSM was used for the 4T1.2 cells at a concentration of 25 ηg/ml. The cells were incubated in OSM for a total of 48 hours and IL-6 levels in the conditioned media was assessed by ELISA. […] In the 4T1.2 mouse mammary cancer cells, OSM induced IL-6 by approximately 4-fold (FIG. 7). To test if OSM induced IL-6 in vivo, tumors from the MDA-MB-231 injected mice were lysed, homogenized, and the IL-6 levels were analyzed by ELISA.

IL-6 [5] = experiment: IL-6 ELISA on conditioned media of OSM treated 4T1.2 cells; assay type: cell-based, mouse; settings: rmOSM 25 ηg/ml, 48 hours
Description: as §1, §2

[6] = system: MDA-MB-231 D3H2LN luc2 cells; experiment: MDA-MB-231 D3H2LN luc2 orthotopic xenograft with peri-tumoral OSM injections; assay type: in vivo, mouse
Description: For xenograft models, six-week-old female nude mice were obtained from the National Cancer Institute's Animal Production Facility (Frederick, Md.). Non-surgical orthotopic injections were performed using 2.0×10^6 cells diluted in 50 μL of PBS containing 10% medium. When the tumors became palpable, mice were randomized into groups and began receiving per-tumoral injections. For peri-tumoral injections, either 50 μL PBS or 1 μg recombinant full length human OSM (Peprotech) diluted in 50 μL PBS was injected into the area surrounding the tumor three times per week until the end point of the experiment.
Detection of human circulating tumor cells (CTCs) in mouse blood was performed. Human DNA standard curve was prepared by adding a specified number of human MDA-MB-231 cells into mouse blood and the DNA isolated for use in the qPCR reactions. Whole DNA was isolated from 100 μl of whole blood collected from mice at the end of the experiment. DNA was isolated using DNeasy Blood & Tissue kit (Quiagen Cat#) using the manufacturer's standard instructions. DNA concentrations were normalized between each sample and 4.5 ng of DNA was added to each 25 μl qPCR reaction. qPCR reaction mixture was obtained from the GoTaq qPCR Master Mix (Promega, Cat#TM318, Madison Wis.), and reaction mixtures were prepared in accordance with manufacturer recommendations. 0.125 μl of 100 μM primers for human Alu fragment, and for GAPDH was added to each reaction. The primer sequences used for Alu was (s:[…] a:[…]) and for
GAPDH the sequence used was (s: […]; a: […]). The qPCR reaction was done with SYBR green chemistry using a CXR reference dye and ran on an Applied Biosystems AB7300 real-time thermocycler. Reaction conditions were: 50° C. for 2 minutes, 95° C. for 3 minutes and 40 cycles of: (95° C. 00:15, 60° C. 00:30, 72° C. 00:30) and fluorescence measurements were taken during the annealing temperature stage (60° C.). cT values were determined and the final results were normalized to GAPDH signal levels.
BLI of live animals was initiated at 13 days after cell line injection and performed weekly. Three to five mice were imaged at one time. Ex vivo organs were also imaged using BLI. Both procedures follow our previously described protocols.
To determine the influence of OSM in human breast cancer, we used a xenograft model. MDA-MB-231 D3H2LN luc2 cells were injected into the fourth mammary fat pads of female nude mice. After the tumors were palpable, OSM (1 μg) or PBS were injected peri-tumorally 3 times per week (FIG. 6A), and mice were monitored until the end-point criteria were met. Tumor size was measured using calipers three times per week for the duration of the experiment and expressed as tumor volume (mm^3)=[…]. […] Next, BLI intensity of the cells was assessed in vivo. The BLI intensities of the tumors from both groups were similar with variations in intensities in both groups (FIG. 6C). A few mice in both groups had lower BLI intensities due to tumor necrosis.
Ex vivo analysis of the lungs was performed. […] Next, quantification of the BLI intensities of the lungs was performed.
Our studies on detecting CTCs involve the usage of the Alu transposon repeats for detecting human cells in mouse blood, and with colony forming assays that detects all transformed cells in the blood. […] In order to detect circulating tumor cells in the mouse circulatory system, DNA was isolated from mouse blood, and human alu fragment concentrations were determined in the blood by qPCR. […]

[7] = system: DU-145 prostate cancer cell line; experiment: Proliferation, detachment and morphology of DU-145 cells treated with OSM; assay type: cell-based, human; settings: OSM 17.5 ng/ml
Description: (§3) Prostate cancer cell lines DU-145 and PC-3 were plated in triplicate in complete RPMI media at a cell density of 1,000 cells/ml and allowed to adhere overnight. Cells were treated the next day with OSM at a concentration of 17.5 ηg/ml (untreated cells were used as a control). Both detached cells and total cells were counted on days 1, 3, 5, 7, and 9. Detached cells were collected, stained with trypan blue and viable cells were counted using a hemocytometer. Adherent cells were trypsinized, stained with trypan blue and viable cells were counted on a hemocytometer. To look at the effects of OSM on prostate cancer cell proliferation, the number of viable detached cells and adherent cells were added together to determine the total number of cells.
The Epithelial-Mesenchymal Transition (EMT) was also measured. During the proliferation and detachment assays detailed above, micrographs of the DU-145 cells were taken at day 5 before cells were collected and counted.

[8] = system: PC-3 prostate cancer cell line; experiment: Proliferation and detachment of PC-3 cells treated with OSM; assay type: cell-based, human; settings: OSM 17.5 ng/ml
Description: as §3

[9] = system: DU-145 prostate cancer cell line; experiment: Matrigel invasion assay, DU-145; assay type: cell-based, human
Description: (§4) FIG. 14. Invasive Potential for the DU-145 and PC-3 Prostate Cancer Cell Lines.
(§5) Invasion potential was also measured. OSM increased the invasion potential of both DU-145 and PC-3 cell lines (FIG. 14).

[10] = system: PC-3 prostate cancer cell line; experiment: Matrigel invasion assay, PC-3; assay type: cell-based, human
Description: as §4, §5

For `O=[N+]([O-])c1c(/C=N/Nc2ccccc2)oc(-c2ccc3c(c2)OCO3)c1-c1ccc2c(c1)OCO2` [OSM-SMI-10], the “inhibition of OSM downstream signaling” value [1] was “inhibited signaling to various extents” and the OSM-induced detachment [2] was “decrease OSM-induced detachment”.

`Cc1nc(C(N)=S)sc1C(=O)CC(=O)C(=O)Nc1nc2ccccc2[nH]1` [OSM-SMI-11] was tested, and the “inhibition of OSM downstream signaling” value [1] was “inhibited signaling to various extents” and the OSM-induced detachment [2] was “decrease OSM-induced detachment”.

B1: OSM: Oncostatin M, IL-6 family cytokine; recombinant human OSM used as stimulus on cells and by peri-tumoral injection (protein, listed as Homo sapiens)
chain: MGVLLTQRTLLSLVLALLFPSMASMAAIGSCSKEYRVLLGQLQKQTDLMQDTSRLLDPYIRIQGLDVPKLREHCRERPGAFPSEETLRGLGRRGFLQTLNATLGCVLHRLADLEQRLPKAQDLERSGLNIEDLEKLQMARPNILGLRNNIYCMAQLLDNSDTAEPTKAGRGASQPPTPTPASDAFQRKLEGCRFLHGYHRFMHSVGRVFSKWGESPNRSRRHSPHQALRKGVRRTRPSRKGKRLMTRGQLPR
For B1, the “induction of pSTAT3 by OSM” value [3] was “induced pSTAT3; also recorded: induce pSTAT3 expression”, the “IL-6 induction by OSM” value (IL-6 [4]; MCF7 cells (ER+)) was “did not change” and the “IL-6 induction by OSM” value (IL-6 [4]; MCF7 cells (ER+), listed as rhOSM) was “did not induce IL-6”. For the same molecule, the “IL-6 induction by OSM” value (IL-6 [4]; MDA-MB-231 cells) was 4-5 fold, the “IL-6 induction by OSM” value (IL-6 [4]; MDA-MB-231 cells, listed as rhOSM) was “approximately 4 fold” and the “IL-6 induction by OSM” value (IL-6 [4]; MDA-MB-468 cells) was 4-5 fold. The “IL-6 induction by OSM” value (IL-6 [4]; MDA-MB-468 cells, listed as rhOSM) was “approximately 5 fold”, the “IL-6 induction by OSM” value (IL-6 [4]; T47D cells (ER+)) was “did not change” and the “IL-6 induction by OSM” value (IL-6 [4]; T47D cells (ER+), listed as rhOSM) was “did not induce IL-6”. The “IL-6 induction by OSM” value (IL-6 [5]) was 4-5 fold, the “metastatic volume within the lungs” value ([6]; ex vivo analysis, peri-tumoral OSM versus PBS) was “larger metastatic volume” and the “BLI intensities of the lungs, OSM injected group higher than PBS injected group” value ([6]; ex vivo lungs, orders of magnitude) was 10^2. For the same molecule, the “tumor volume versus PBS group” value ([6]; female nude mice, OSM 1 μg peri-tumorally 3 times per week) was “did not differ”, the “ex vivo lung BLI intensity versus PBS injections” value ([6]; female nude mice, peri-tumoral OSM) was 200 fold and the “increase in number of circulating tumor cells per 100 μl of mouse blood” value ([6]; human Alu qPCR, versus animals without OSM injections) was 3.5 fold. For the same molecule, the detachment ([7]; 5 days, versus untreated cells) was “significantly increased; also recorded: increased detachment”, the proliferation ([7]; 5 days, versus untreated cells) was “significantly increased; also recorded: increased proliferation” and the “morphology (EMT)” value ([7]; day 5) was “more mesenchymal morphology; also recorded: mesenchymal orphology characteristic of having undergone EMT”. The detachment [8] was “not and did not show increased detachment”, the proliferation [8] was “not and did not show increased proliferation” and the invasion potential ([9]; OSM 17.5 ng/ml, 24 hours) was “increased invasion potential”. For the same molecule, the “treated cells showing an invasive potential” value ([9]; OSM treated DU-145 cells) was “Twenty three”, the invasion potential ([10]; OSM 17.5 ng/ml, 24 hours) was “increased invasion potential” and the “treated cells showing an invasive potential” value ([10]; OSM treated PC-3 cells) was 21%. The “increase in invasive potential versus untreated” value ([10]; PC-3 cells pretreated with OSM for 72 hours) was 4 fold.

B2: rmOSM: recombinant mouse OSM used for the 4T1.2 cells (protein, UniProt P53347 25-206, looked up)
Oncostatin-M: NRGCSNSSSQLLSQLQNQANLTGNTESLLEPYIRLQNLNTPDLRAACTQHSVAFPSEDTLRQLSKPHFLSTVYTTLDRVLYQLDALRQKFLKTPAFPKLDSARHNILGIRNNVFCMARLLNHSLEIPEPTQTDSGASRSTTTPDVFNTKIGSCGFLWGYHRFMGSVGRVFREWDDGSTRSRR
B2 was tested, and the “IL-6 induction by OSM” value (IL-6 [5]) was “approximately 4 fold”.
